Each block holds one binder with its values, some of them ahead of it.
What was measured:
Test in all cases: holdup assay
Design in all cases: key: below the threshold = too weak to quantify, mostly under pKd 3.1 to 4
GRIP2_3, Q9C0E4 = target: GRIP2_3, Q9C0E4
LRRC7, Q96NW7 = target: T1, LRRC7, Q96NW7
T1 sequence (Q96NW7 1440-1537, limits assumed, looked up): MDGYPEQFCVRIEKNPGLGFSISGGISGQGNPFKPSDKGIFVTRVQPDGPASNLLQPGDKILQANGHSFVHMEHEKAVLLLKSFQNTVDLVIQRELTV

SHANK1, Q9Y566 = target: T2, SHANK1, Q9Y566
T2 sequence (Q9Y566 658-767, limits assumed, looked up): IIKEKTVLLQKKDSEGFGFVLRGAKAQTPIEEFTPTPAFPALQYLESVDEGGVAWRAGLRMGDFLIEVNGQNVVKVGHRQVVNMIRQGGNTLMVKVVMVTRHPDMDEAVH

NHERF3_1, Q5T2W1 = target: T3, NHERF3_1, Q5T2W1
T3 sequence (Q5T2W1 4-100, limits assumed, looked up): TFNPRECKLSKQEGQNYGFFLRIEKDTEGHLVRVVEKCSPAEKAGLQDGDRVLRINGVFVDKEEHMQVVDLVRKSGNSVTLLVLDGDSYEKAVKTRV

LNX1_1, Q8TBB1 = target: LNX1_1, Q8TBB1
TJP3_3, O95049 = target: T4, TJP3_3, O95049
T4 sequence (O95049 375-456, limits assumed, looked up): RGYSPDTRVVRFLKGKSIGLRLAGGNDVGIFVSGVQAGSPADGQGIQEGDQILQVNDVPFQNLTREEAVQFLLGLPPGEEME

DLG1_3, Q12959 = target: DLG1_3, Q12959
GRIP2_6, Q9C0E4 = target: GRIP2_6, Q9C0E4
DLG4_1, P78352 = target: DLG4_1, P78352
LAP2, Q96RT1 = target: LAP2, Q96RT1
TJP2_1, Q9UDY2 = target: TJP2_1, Q9UDY2
CASK, O14936 = target: CASK, O14936
NHERF3_3, Q5T2W1 = target: T5, NHERF3_3, Q5T2W1
T5 sequence (Q5T2W1 238-333, limits assumed, looked up): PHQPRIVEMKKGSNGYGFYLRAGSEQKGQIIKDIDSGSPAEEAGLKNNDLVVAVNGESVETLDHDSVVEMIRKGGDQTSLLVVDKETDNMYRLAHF

RHPN1, Q8TCX5 = target: T6, RHPN1, Q8TCX5
T6 sequence (Q8TCX5 508-602, limits assumed, looked up): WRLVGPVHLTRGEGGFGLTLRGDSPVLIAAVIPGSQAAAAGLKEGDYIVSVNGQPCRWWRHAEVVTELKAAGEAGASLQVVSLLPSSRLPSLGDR

LIMK2, P53671 = target: LIMK2, P53671
PDZD7_3, Q9H5P4 = target: T7, PDZD7_3, Q9H5P4
T7 sequence (Q9H5P4 857-944, limits assumed, looked up): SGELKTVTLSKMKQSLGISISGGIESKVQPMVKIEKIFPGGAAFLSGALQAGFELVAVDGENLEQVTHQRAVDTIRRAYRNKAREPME

FRMPD3, Q5JV73 = target: FRMPD3, Q5JV73
NHERF2_2, Q15599 = target: NHERF2_2, Q15599
APBA1_2, Q02410 = target: T8, APBA1_2, Q02410
T8 sequence (Q02410 742-832, limits assumed, looked up): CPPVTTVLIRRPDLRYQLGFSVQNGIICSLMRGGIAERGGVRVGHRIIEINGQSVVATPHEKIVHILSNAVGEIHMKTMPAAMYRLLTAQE

Inadl_8, Q8NI35 = target: Inadl_8, Q8NI35
GOPC, Q9HD26 = target: GOPC, Q9HD26
FRMPD2_3, Q68DX3 = target: FRMPD2_3, Q68DX3
LNX2_3, Q8N448 = target: T9, LNX2_3, Q8N448
T9 sequence (Q8N448 463-564, limits assumed, looked up): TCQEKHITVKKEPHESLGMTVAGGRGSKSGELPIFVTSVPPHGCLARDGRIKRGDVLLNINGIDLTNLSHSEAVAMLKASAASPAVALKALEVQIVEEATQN

APBA3_1, O96018 = target: T10, APBA3_1, O96018
T10 sequence (O96018 389-490, limits assumed, looked up): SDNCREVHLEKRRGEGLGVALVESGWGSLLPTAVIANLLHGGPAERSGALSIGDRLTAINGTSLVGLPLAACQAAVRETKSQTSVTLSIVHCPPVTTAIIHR

NHERF4_2, Q86UT5 = target: NHERF4_2, Q86UT5
Inadl_4, Q8NI35 = target: Inadl_4, Q8NI35
DLG3_3, Q92796 = target: T11, DLG3_3, Q92796
T11 sequence (Q92796 374-475, limits assumed, looked up): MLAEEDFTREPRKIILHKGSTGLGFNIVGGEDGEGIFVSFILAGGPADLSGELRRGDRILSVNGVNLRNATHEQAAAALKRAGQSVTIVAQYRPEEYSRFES

[1] = plain residues with an end cap or a label only (N-terminal biotin on a linker: ttds)
[2] = plain residues with an end cap or a label only (N-terminal biotin on a linker: ado-ado)

Chain of LNX1_1, Q8TBB1 (Q8TBB1 261-371): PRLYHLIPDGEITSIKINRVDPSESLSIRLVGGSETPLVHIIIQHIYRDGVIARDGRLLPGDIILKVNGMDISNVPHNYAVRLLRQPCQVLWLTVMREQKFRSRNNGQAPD
Chain of Inadl_8, Q8NI35 (Q8NI35 1425-1530): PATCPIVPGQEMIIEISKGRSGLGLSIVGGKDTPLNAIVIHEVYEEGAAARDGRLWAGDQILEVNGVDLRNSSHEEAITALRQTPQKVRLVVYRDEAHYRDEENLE
Chain of DLG4_1, P78352 (P78352 62-152): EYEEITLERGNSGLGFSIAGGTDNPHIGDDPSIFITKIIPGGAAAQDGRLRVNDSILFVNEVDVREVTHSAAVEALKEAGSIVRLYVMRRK
Chain of FRMPD3, Q5JV73 (Q5JV73 12-100): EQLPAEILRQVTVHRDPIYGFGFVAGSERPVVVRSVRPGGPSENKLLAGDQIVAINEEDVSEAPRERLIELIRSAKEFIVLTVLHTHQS
Chain of LIMK2, P53671 (P53671 143-248): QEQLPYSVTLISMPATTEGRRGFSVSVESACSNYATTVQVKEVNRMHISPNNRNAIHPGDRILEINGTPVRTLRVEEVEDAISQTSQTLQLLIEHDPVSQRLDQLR
Chain of NHERF2_2, Q15599 (Q15599 142-238): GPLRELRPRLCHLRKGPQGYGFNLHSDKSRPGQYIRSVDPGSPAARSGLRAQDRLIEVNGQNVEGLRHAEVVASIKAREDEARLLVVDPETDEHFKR
Chain of NHERF4_2, Q86UT5 (Q86UT5 220-308): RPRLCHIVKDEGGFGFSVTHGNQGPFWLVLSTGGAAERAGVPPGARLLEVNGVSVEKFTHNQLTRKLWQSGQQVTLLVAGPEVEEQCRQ
Chain of DLG1_3, Q12959 (Q12959 457-571): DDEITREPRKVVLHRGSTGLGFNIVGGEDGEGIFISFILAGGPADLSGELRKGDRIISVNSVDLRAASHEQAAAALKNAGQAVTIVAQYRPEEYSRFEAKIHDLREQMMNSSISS
Chain of FRMPD2_3, Q68DX3 (Q68DX3 1073-1166): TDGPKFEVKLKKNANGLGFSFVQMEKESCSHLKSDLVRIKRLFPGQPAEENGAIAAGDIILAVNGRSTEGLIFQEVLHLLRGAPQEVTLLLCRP
Chain of GRIP2_3, Q9C0E4 (Q9C0E4 238-339): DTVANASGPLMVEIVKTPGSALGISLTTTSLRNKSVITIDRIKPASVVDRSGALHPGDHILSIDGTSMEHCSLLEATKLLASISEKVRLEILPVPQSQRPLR
Chain of GRIP2_6, Q9C0E4 (Q9C0E4 648-740): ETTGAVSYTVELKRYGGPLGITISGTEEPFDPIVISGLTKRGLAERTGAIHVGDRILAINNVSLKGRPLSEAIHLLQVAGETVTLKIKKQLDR
Chain of TJP2_1, Q9UDY2 (Q9UDY2 24-128): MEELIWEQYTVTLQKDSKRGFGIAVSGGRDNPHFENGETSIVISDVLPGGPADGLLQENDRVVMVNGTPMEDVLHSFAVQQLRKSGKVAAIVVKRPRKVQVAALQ
Chain of CASK, O14936 (O14936 487-570): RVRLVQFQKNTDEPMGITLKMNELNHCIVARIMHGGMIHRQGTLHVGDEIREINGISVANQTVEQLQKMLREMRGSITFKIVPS
Chain of Inadl_4, Q8NI35 (Q8NI35 547-651): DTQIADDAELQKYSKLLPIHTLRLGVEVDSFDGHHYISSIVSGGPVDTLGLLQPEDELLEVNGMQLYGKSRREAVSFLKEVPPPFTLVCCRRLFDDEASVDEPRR
Chain of LAP2, Q96RT1 (Q96RT1 other isoform, or with tags, fused parts or gaps): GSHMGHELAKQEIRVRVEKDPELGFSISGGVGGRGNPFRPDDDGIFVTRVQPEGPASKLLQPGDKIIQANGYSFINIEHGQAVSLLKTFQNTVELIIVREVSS

pKd (GRIP2_3, Q9C0E4; [1]): below the threshold
pKd (LRRC7, Q96NW7; [1]): below the threshold
pKd (SHANK1, Q9Y566; [1]): below the threshold
pKd (NHERF3_1, Q5T2W1; [1]): 5.08
pKd (LNX1_1, Q8TBB1; [1]): 3.66
pKd (TJP3_3, O95049; [1]): below the threshold
pKd (DLG1_3, Q12959; [1]): 4.05
pKd (GRIP2_6, Q9C0E4; [1]): below the threshold
pKd (DLG4_1, P78352; [1]): 3.9
pKd (LAP2, Q96RT1; [1]): 3.48
pKd (TJP2_1, Q9UDY2; [1]): 4.43
pKd (CASK, O14936; [1]): below the threshold
pKd (NHERF3_3, Q5T2W1; [1]): below the threshold
pKd (RHPN1, Q8TCX5; [1]): 4.68
pKd (LIMK2, P53671; [1]): below the threshold
pKd (PDZD7_3, Q9H5P4; [1]): 4.87
pKd (FRMPD3, Q5JV73; [1]): below the threshold
pKd (NHERF2_2, Q15599; [1]): below the threshold
pKd (APBA1_2, Q02410; [1]): 3.8
pKd (Inadl_8, Q8NI35; [1]): 3.78
pKd (GOPC, Q9HD26; [1]): 3.95
pKd (FRMPD2_3, Q68DX3; [1]): below the threshold
pKd (LNX2_3, Q8N448; [1]): below the threshold
pKd (APBA3_1, O96018; [1]): below the threshold
pKd (NHERF4_2, Q86UT5; [1]): below the threshold
pKd (Inadl_4, Q8NI35; [1]): below the threshold
pKd (DLG3_3, Q92796; [1]): 3.57
Binder: QFQYAKESYI [TAGAP, Q8N103]

pKd (GRIP2_3, Q9C0E4; [2]): below the threshold
pKd (LRRC7, Q96NW7; [2]): 3.58
pKd (SHANK1, Q9Y566; [2]): 4.34
pKd (NHERF3_1, Q5T2W1; [2]): 4.82
pKd (LNX1_1, Q8TBB1; [2]): 4.02
pKd (TJP3_3, O95049; [2]): below the threshold
pKd (DLG1_3, Q12959; [2]): 3.85
pKd (GRIP2_6, Q9C0E4; [2]): below the threshold
pKd (DLG4_1, P78352; [2]): 4.07
pKd (LAP2, Q96RT1; [2]): 4.13
pKd (TJP2_1, Q9UDY2; [2]): below the threshold
pKd (CASK, O14936; [2]): below the threshold
pKd (NHERF3_3, Q5T2W1; [2]): below the threshold
pKd (RHPN1, Q8TCX5; [2]): 4.18
pKd (LIMK2, P53671; [2]): below the threshold
pKd (PDZD7_3, Q9H5P4; [2]): 4.55
pKd (FRMPD3, Q5JV73; [2]): below the threshold
pKd (NHERF2_2, Q15599; [2]): below the threshold
pKd (APBA1_2, Q02410; [2]): 3.69
pKd (Inadl_8, Q8NI35; [2]): 4.71
pKd (GOPC, Q9HD26; [2]): 4
pKd (FRMPD2_3, Q68DX3; [2]): below the threshold
pKd (LNX2_3, Q8N448; [2]): below the threshold
pKd (APBA3_1, O96018; [2]): below the threshold
pKd (NHERF4_2, Q86UT5; [2]): below the threshold
pKd (Inadl_4, Q8NI35; [2]): below the threshold
pKd (DLG3_3, Q92796; [2]): 3.57
Binder: FVHPILQSAV [PRKCA, P17252]

pKd (GRIP2_3, Q9C0E4; [1]): below the threshold
pKd (LRRC7, Q96NW7; [1]): 3.63
pKd (SHANK1, Q9Y566; [1]): below the threshold
pKd (NHERF3_1, Q5T2W1; [1]): below the threshold
pKd (LNX1_1, Q8TBB1; [1]): 3.98
pKd (TJP3_3, O95049; [1]): below the threshold
pKd (DLG1_3, Q12959; [1]): 4.77
pKd (GRIP2_6, Q9C0E4; [1]): below the threshold
pKd (DLG4_1, P78352; [1]): 4.69
pKd (LAP2, Q96RT1; [1]): 3.61
pKd (TJP2_1, Q9UDY2; [1]): 3.91
pKd (CASK, O14936; [1]): below the threshold
pKd (NHERF3_3, Q5T2W1; [1]): below the threshold
pKd (RHPN1, Q8TCX5; [1]): 4.24
pKd (LIMK2, P53671; [1]): below the threshold
pKd (PDZD7_3, Q9H5P4; [1]): 5.41
pKd (FRMPD3, Q5JV73; [1]): below the threshold
pKd (NHERF2_2, Q15599; [1]): below the threshold
pKd (APBA1_2, Q02410; [1]): 3.86
pKd (Inadl_8, Q8NI35; [1]): 4.82
pKd (GOPC, Q9HD26; [1]): 3.78
pKd (FRMPD2_3, Q68DX3; [1]): below the threshold
pKd (LNX2_3, Q8N448; [1]): below the threshold
pKd (APBA3_1, O96018; [1]): below the threshold
pKd (NHERF4_2, Q86UT5; [1]): below the threshold
pKd (Inadl_4, Q8NI35; [1]): below the threshold
pKd (DLG3_3, Q92796; [1]): 4.47
Binder: LCALPKVTTV [AGMAT, Q9BSE5]

pKd (GRIP2_3, Q9C0E4; [2]): below the threshold
pKd (LRRC7, Q96NW7; [2]): below the threshold
pKd (SHANK1, Q9Y566; [2]): 4.42
pKd (NHERF3_1, Q5T2W1; [2]): 4.54
pKd (LNX1_1, Q8TBB1; [2]): 3.73
pKd (TJP3_3, O95049; [2]): below the threshold
pKd (DLG1_3, Q12959; [2]): below the threshold
pKd (GRIP2_6, Q9C0E4; [2]): below the threshold
pKd (DLG4_1, P78352; [2]): 3.9
pKd (LAP2, Q96RT1; [2]): 3.74
pKd (TJP2_1, Q9UDY2; [2]): 3.72
pKd (CASK, O14936; [2]): below the threshold
pKd (NHERF3_3, Q5T2W1; [2]): 3.7
pKd (RHPN1, Q8TCX5; [2]): 4.38
pKd (LIMK2, P53671; [2]): below the threshold
pKd (PDZD7_3, Q9H5P4; [2]): 4.63
pKd (FRMPD3, Q5JV73; [2]): below the threshold
pKd (NHERF2_2, Q15599; [2]): 4.16
pKd (APBA1_2, Q02410; [2]): 4.64
pKd (Inadl_8, Q8NI35; [2]): 4.01
pKd (GOPC, Q9HD26; [2]): 4.17
pKd (FRMPD2_3, Q68DX3; [2]): below the threshold
pKd (LNX2_3, Q8N448; [2]): below the threshold
pKd (APBA3_1, O96018; [2]): below the threshold
pKd (NHERF4_2, Q86UT5; [2]): below the threshold
pKd (Inadl_4, Q8NI35; [2]): below the threshold
pKd (DLG3_3, Q92796; [2]): below the threshold
Binder: TETASVCTKV [SLC23A1, Q9UHI7]
